The target of this assay is murine Htk ligand (murine). As to the kind of experiment: steady-state competition of 125I-Htk-Fc with unlabelled Htk-Fc on SV40MES 13 cells, Scatchard analysis.

As usually defined, the Kd is the equilibrium constant for the complex coming apart. High values mean lower affinity, low ones higher affinity.

In the case of soluble Htk receptor-Fc fusion protein, the equilibrium dissociation constant (Kd) was 3 nM.

The record behind these values is patent US5624899.
